# Experimental data taken from the nanobody polyreactivity screen of Harvey et al. (2022).
# Assay: yeast display, Sf9 membrane polyspecificity reagent, FACS + sequencing; frameworks hold sequencing errors
# How it was run: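 Sorting gates, low and high (top ~1%), were placed on anti-HA fluorescence to track expression and on streptavidin fluorescence to track reagent binding. A clone's polyreactivity label is taken from the gate it came out of. The reagent was 10% biotinylated, detergent-solubilized Sf9 membrane, applied for 1 hour at 4 °C to galactose-induced yeast display cells.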
row,Sequence,polyreactivity (PSR sort gate)
1,QVQLVESGGRLVQAGGSLRLSCAASGSTFSYYDMGGYRQAPGKEMELVADISWSGGSTYYADSVKGRFTISRDNAKNTVYLQMNSLKPEDTAVYYCAARGYVRWYNRYDYWGQGTQVTVSS,low polyreactivity
2,QVQLVESGGGLVQAGGSLRLTCAASGFTFYWYTMGWYRQAPGKERELVATISGSGGRTYYADSVKGRFTISRDNAKNTVYLQMNSLKPEDTAVYYCNAGRPYKYGYWGQGTQVTVSS,high polyreactivity
3,QVQLVESGGGLVQAGGSLRLSCAASGFIFLWNAMAWYRQAPGKELDLVAAINRGTSTNYADSVKGRFTISRDNAKNTVYLQMNSLKPEDTAVYYCAVSVLPWQMYSESYAEYDYWGQGTQVTVSS,low polyreactivity
4,QVQLVESGGGLVQAGGSLRLSCAASGSIFVRYAMGWYRQAPGKERQLVASIRSRGDSTYYADSVKGRFTISRDNAKNTVYLQMNSLKPEETAVYYCAARRYPPRMDYWGQGTQVTVSS,high polyreactivity
5,QVQHVESGGGLVQAGGSLRLSCAASGRTFITYAMGWYRQGPGKERELVATISGGGGTNYADSVKGRFTISRDNAKNTVYLQMNSLKPEDTAVYYCNKRAWYVYTHFDYWGLGTQVTVSS,low polyreactivity
6,QVQLVESGGGLVQAGGSLRLSCAASGSTIPRNALGWYRQATGKERELVPAISSGGSTYYADSVKWRFTISRDNAKNTVYLQMNRLKPEDTAVYYCAARLYWPIIVVDLYGYDYWGQGTQVTVSS,low polyreactivity
7,QVQLVESGGGLVQAGGSLRLSCASSVRIFEVYAMGSYRQAPGKERELVADITYSGGSTYYADSVKGRFTISRDNAMNTVYLQMNSLKPEDTAVYYCAADVTFVHRYEYYRSYDYWGQGTQVTVSS,low polyreactivity
8,QVQLVESGGGLDQAGGSLRLSCADSGSTFGLYAMGWYRQAPGKETELVAVISWRGGSTYYADSVKGRFTISRDNAKITVYFQMNSLKPEDTAVYYCAAYCLYPYVRYDYWGLGTQVTVSS,low polyreactivity
9,QVQLVESGGGLVQAGGSLRLSCAASGSTFSQYVMGWYRQAPGKERELVAAISSGGSTYYADSVKGRFTISRDNAKNTVYLQMNSLKPEDTAVYYCAAKYDGSYVGLYWYSMNYWGQGTQVTVSS,low polyreactivity
10,QVQLVESGGGLVQAGGSLRLSCAASGSIFTYYAMGWYRQAPGKEMELVAAISWSGGSTYYADSVKGRFTISRDNAKNTVYLQLNSLKPEDTAVYYCAKRYRKGRAYPGYEYWGQGTQVTVSS,low polyreactivity
11,QVQLVESGGGLVQAGGSLRLSCAASGFIIGYYAMGWYRQAPGKERDLVAAISSTGGSTYYADSVKGRFTISRDNAMNTVYLQMNSLKPEDTAVYYCAKRFAYYRYHPGYDYWGQVTQVTVSS,high polyreactivity
12,QVQLVESGGGLVQAGGSLRLSCAASGRIFRRYAMGWYRQAPGKEREFVAAITDGSTYYADSVKGRFTISRDNAKNTVYLQMNSLKPEDTAVYYCATQYGWSYSRRFYYWGQGTQVTVSS,high polyreactivity
13,QVQLVESGGGLVQAGGSLRLSCAASGRIFWSYAMGWYRQAPGKEREFVAVITWSGGSTYYADSVKGRFTISREYAKNTVYLEMNSLKPEDTAVYYCKADYYGPYRDYGYWGQGTQVTVSS,low polyreactivity
14,QVQLVESGGGLVQAGGSLRISCAASGSTFKGYAMGWYRQSPGKERELVAAISRSGTRTYYADSVKVRFTISRDTAKNTVYLQMNSLNPEDTAVYSCNKDTGYIAHDNENGRDYWGQGTQVTVSS,low polyreactivity
15,QVQLEESGGGLVQAGGSLRLSCAASGSIFYTYAMGWYRQAPGTERELVAAISRSGGSTYYADSVKGRFTISRDNAKNTVYLQMNSLKPEDTSVYYCAARPPYRVGIVPLGRREYYWGQGTQVTVSS,high polyreactivity
16,QVQLVESGGGLVQAGGSLRLSCAASGSTFQVNAMGWYRQAPGKERELVASISGGSSTNYADSVKGRFTISRDNAKNTVYFQMNSLKPEDTAVYYCAADYLSGLRVAYDYWGQGTQVTVSS,low polyreactivity
17,QVQLVESGGGLVQAGGSLRLSCAASGSIFRTNAMGWYREAPGKERELVAAITGRGGSTYYADSVKGRFTISRDYAKNTVYLQMNSLKPEDTAVYYCAAAYGTWKFLATTEDYWGQGTQVTVSS,high polyreactivity
18,QVQLVESGGGLVQAGGSLRLICSASGSIFPQYAMVSYRPEPGKERALFAAISYSGGRSYYADSVKGRFTISRDIAKNTVYLQMNSLKTEYTGVYYWAARVKRGIPTYGKCYYAFGDWGQGTQVTVSS,high polyreactivity
19,QVQLVETGGGLVQAGGSLRLSCAPSGFTFRRNAMGWYRQAPGKERELVAVITSSARTNYADSVKGRFTISRDNAKNTVYLQMNSLKPEDTAVYYCAARYHYGVWRERHGYWGQGTQVTVSS,high polyreactivity
20,QVQLVESGGGLVQAGGSLRLSCAASGSIFVYYAMGWYRQAPGKERELVAAISSTGGRTYYADSVKGRFTISRDNAKNTVYLQMNSLKPEDTAVYYCNAARTGYRYYDWFYDYDYWGQGTQVTVSS,low polyreactivity
21,QVQLVESGGGLVQAGGSLRLSCAASGRTFREYAMGWYRHAPGKEREFVAAISESVGSTYYADSVKGRFTISRDNAKNTVYLQMNSLKPEDTAVYYCAKQSRYPSLDADYDYWGQGTQVTVSS,low polyreactivity
22,QVHLVESGGGLVQAGGSLRLSCAASGSTFTLNTMGWYRQAPGKERELVAGIRSGGSTYYADSVKGRFTISRDNAKNTVYLQMNSLKPEDTAVYYCAADRRWFAYWFDYWGQGTQVTVSS,low polyreactivity

row,Sequence,polyreactivity (PSR sort gate)
1,QVQLVESGGGLVQAGGSLRLRCAATGSIFTKYAMGWYRQAPGKERELVAAISWSGSRTRYADSVKGRFTISRDNAKNTVYLQMNSLKPEDTAVYYCAAEIAASYRPEYDYWGQGTQVTVSS,high polyreactivity
2,QVQLVESGGGLVQAGGSLRLSCAASGFTFFEDNAMGWYRQAPGKERELVAAITSGGSTNYADSVKGRFTISRDNAKNTVYLQMISLKPEDTAVYYCAKDRVPLKTRFYYFPWGYDYWGQGTQVTVSS,low polyreactivity
3,QVQLVESGGGLVQAGGSLRLSCAASGSTLRRYAMGWYRQAPGKERELVAINSSGGITYYADSVKGRVTISRDNAKNTVYLQMNSLKPEDTAVYYCNARRPAPGYGYDYWGQGTQVTVSS,low polyreactivity
4,QVQLVESGGGLVKAGGSLRLSCAASGNIFYINTMGWYRQAPGKERELVAAIDASYGSTYYADSVKGRFTISRDNAKNTVYLQMNSLKPEDTAVYYCATSRGYDSVYYFYTLWYYYWVQGTQVTVSS,low polyreactivity
5,QVQLVESGGGLVQAGGSLRLSCAASGRIFTNYVMGWYRQAPGKERELVAAISKSGSRTYYADSVKGRFTISRDNAKNTVYLQMNSLKPEDTAVYYCAKVDTPGSQRYITPDEGPEYEYWGQGTQVTVSS,high polyreactivity
6,QVQLVESGGGLVQAGGSLRLSSAASGIFRWNTKGWYRQAPRKERELVATISWGGGTTYYADSVKGRFTISRDNAKNTVYLQMNSLKPEDTAVYYCAKVYAVRIGMRYSYWGHGTQVTVSS,low polyreactivity
7,QVQLVESGGGLVQAGGSLRLSCAASGNIFRGYTMGWYRQAPGKERELVATITWNGVSTFYADSVKGRFTISRDNAKNTVYLEMNSLKPEDTAVYYCAAYYPSHDYSGFWSDTYEYWGQGTQVTVSS,low polyreactivity
8,QVQLVESGGGLVQAGGSLRLSCDASGSTFAYNVMGWYRQAPGKERELVAAISRSGGSTYYADSVKGRFTISRDNAKNTVYLQMNSLKPEDTAVYYCAKLFRPRLQDGYWGQGSQVTVSS,high polyreactivity
9,QVQLVESGGGLVQAGGSLRLSCAASGRTFYYNAMGWYRQAPGKERELVAAITSAGSTNYADSVKGRFTISRDNAKNTVYLQMNSLKPEDTAVYYCAARYFYRSAWGTFVKNDSWGQGTQVTVSS,high polyreactivity
10,QVQLVESGGGLVQAGGSLRLSCAASGITFLVYAMGWYRQAPGKERELVAAISADAGGTYYADSVKGRFTISRDNAKNTVYLQMNSLKPEDTAVYYCNVDGRSDGDDYWGQGTQVTVSS,low polyreactivity
11,QVQLVESGGGLVQAGGSLRLSCAASGRIFTLYTMGWYRQAPGKERELVAAISSSGGRTYYADSVKGRFTISRDNAKNTVYLQMNSLKPEDTAVYYCNAGYWYYGQDDYWGQGTQVTVSS,high polyreactivity
12,QVQLGESGGGLVQAGGSLRLSCAASGRIVRFYAMGWYRQAPGKERELVATISRSGGSTYYADSVKGRFTISRDNAKNTVNIQMNSLKPEDTAVYYCARLVGSRYGHWGQGTQVTVSS,high polyreactivity
13,QVQLVESGGGLVQAGGSLRLSCAASGLIFGKNAMGWYRQAPGKERELVAAISSGDSTYADSVKGRFTISRDNAKNTVYLQMNSLKPEDTAVYYCNAEVLRESYDRHPTTDYYWGQGTQVTVSS,low polyreactivity
14,QVQLVESGGGLVQAGGSLRLSCAASGLIFADYTMGWYRQAPGKERELVAVITDGDSTYYADSVKGRFTISRDNAKNTVYLQMNSLKPEDTAVYYCAAELDGSNYTLDYWGLGTQVTVSS,low polyreactivity
15,QVHLVESGGGLVQAGGSLRLSCAASGSTFAANAMGWYRQAPGKERELVAAITSSGGSTYYADSVKGRFTISRDNAKNTVYLQMNSLKPEDTAVYYCKKDIERYFRIYDSWGQGTQVTVSS,low polyreactivity
16,QVQLVESGGGFVQAGGSLRLSCAASGSIFYTYVMGWYRQAPGKERELVAAITWSGGSTYYADSVKGRFTISRDNAKNTVYLQMNSLKPEDTAVYYCAAVRGYRSSKYDYWGQGTQVTVSS,high polyreactivity
17,QVQLVESGGGLFQAGGSLRLSCAASGRIFSYNNMGWYRQAPGKERELVAAISTSGGSTYYADSVKGRFTLSRDNAKNTVYLQMNSLKPEDTAVYYCNTVWTFRTSTNYDYWGQVTQVTVSS,low polyreactivity
18,QVQLVESCGGFVQAGGSLSLSCAASGSIYGRYGMGWYIQAPGKERELVAAITSGTRTNYADSVKGRFTISRDNAKNTVYLQMKSLKPEDTAVYYCYALRLRGNYEYGYWGQGTQVTVSS,low polyreactivity
19,QVQLVESGGGLVQAGGSLRLSSAASGSIYYPYAMGWYRQAPGKERELVAAIRNGGSTYYADSVKGRFTISRDNAKNTVYLQMNSLKPEETAVYYCNAVYTGPTYGPHRKENYYWGQGTQVTVSS,high polyreactivity
20,QVQLVESGGGLVQAGGSLRLSCASSGFTFWTYDMGWYRQAPGKERELVAAIDSGGSTYYADSVKGRFTISRDNAKNTVYLQMNSLKPEDTAVYYCNAGPSVTSGYDYDYWGQGTQVTVSS,low polyreactivity
21,QVQLVESGGGLVQAGGSLRLSCASSGITFDYYAMGWYRQAPGKERELVASISSDSSTYYADSVKGRFTISRDNAKNTVYLQMNSLKPEDTAVYYCNAGDTTFPFYYWGQGTQVTVSS,low polyreactivity
